These results are taken from US20030092613A1, “Alpha7 nicotinic receptor peptides as ligands for beta amyloid peptides” (priority 2000, published 2003).

In the assay the target is β-amyloid1-42 (UniProt P05067). The assay can be described thus: cell-based or functional assay.

Consider cyclic peptide (Ac)ECCK-amide, for which the ACh rel % Inh @ 100 µM amounted to 87%.
